Laboratory results taken from US20230087805A1.

Key:
[1] = target: C1ND (recombinant human CEACAM1 N-domain, residues 35-142, C-terminal Strep-Tag II, made in Expi293 cells) (human) (UniProt P13688); assay: isothermal titration calorimetry, HopQ^AD titration with C1ND, 25 °C, 1:1 stoichiometry
[2] = target: C1ND (recombinant human CEACAM1 N-domain, residues 35-142, C-terminal Strep-Tag II, made in Expi293 cells) (human) (UniProt P13688); assay: ELISA, C1ND coated, HopQ fragments titrated

| Substance | Kd [1] [nM] | fold reduction of CEACAM1 binding affinity against HopQ^AD [2] [fold] |
| --- | --- | --- |
| HopQ^AD (HopQ adhesin domain; soluble HopQ type I fragment of H. pylori strain G27, residues 37-463, C-terminal 6x His-tag) | 296 |  |
| HopQ^ADΔID (HopQ^AD in which amino acids 190-218 of the mature protein are replaced by two glycines) |  | 10 |
